This passage reports percent of TDP43-LCD condensates irregularly shaped after 4 h of co-incubation with Httex1(Q46) fibrils (∼10% without fibrils), fluorescence microscopy, t1/2 of ThT fluorescence of 50 μM TDP43-LCD with 5 μM and 20 μM Httex1(Q46) fibrils (∼4 h and ∼1.5 h; ∼7 h without fibrils) and concentration of Httex1(Q46) in the pellet results from article PMC11408864.

Experiment [1] has as its target TDP43-LCD condensates, 2% Alexa Fluor 488 labeled (UniProt Q13148).
Experiment [2] addresses TDP43 low complexity domain (TDP43-LCD) condensates (UniProt Q13148).
For experiment [3] the target is unchanged. As to the kind of experiment: co-sedimentation; TDP43-LCD condensates (50 μM) mixed with spin-labeled Httex1(Q46)-35R1 monomers (pre-filtered, 100 kD) or fibrils (sonicated, unbundled), 20 μM starting concentration; 123,000g at 4 °C; Httex1 in pellet and supernatant quantified by EPR.

For “Httex1(Q46) fibrils, Alexa Fluor 594 labeled (domain or fragment)”, in experiment [1], the percent of TDP43-LCD condensates irregularly shaped after 4 h of co-incubation with Httex1(Q46) fibrils (∼10% without fibrils), fluorescence microscopy is 60%. The same substance gave a t1/2 of ThT fluorescence of 50 μM TDP43-LCD with 5 μM and 20 μM Httex1(Q46) fibrils (∼4 h and ∼1.5 h; ∼7 h without fibrils) in experiment [2] of 4 h. Regarding “Httex1(Q46)-35R1 monomer (domain or fragment)”, in experiment [3], the concentration of Httex1(Q46) in the pellet was below 0.3 µM.
